Experiments:
Assay in all cases: cell-based or functional assay
Abl(H396P)(h) (human) = Abl(H396P)(h) (human) (UniProt P00519)
Abl(M351T)(h) (human) = Abl(M351T)(h) (human) (UniProt P00519)
Abl(T315I)(h) (human) = Abl(T315I)(h) (human) (UniProt P00519)
Aurora-A(h) (human) = target: T1, Aurora-A(h) (human) (UniProt O14965)
T1 sequence (looked up): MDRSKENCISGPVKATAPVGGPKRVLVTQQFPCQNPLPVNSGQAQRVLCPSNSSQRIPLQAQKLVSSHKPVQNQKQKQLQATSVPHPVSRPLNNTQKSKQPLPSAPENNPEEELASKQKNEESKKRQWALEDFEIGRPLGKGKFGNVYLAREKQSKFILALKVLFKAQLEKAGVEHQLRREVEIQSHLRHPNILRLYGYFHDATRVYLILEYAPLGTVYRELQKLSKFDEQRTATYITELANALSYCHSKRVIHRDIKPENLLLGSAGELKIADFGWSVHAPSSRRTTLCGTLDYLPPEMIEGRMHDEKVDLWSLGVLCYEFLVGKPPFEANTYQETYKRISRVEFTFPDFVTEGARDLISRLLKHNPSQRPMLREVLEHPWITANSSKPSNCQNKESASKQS

EGFR(T790M)(h) (human) = EGFR(T790M)(h) (human) (UniProt P00533)
EphA2(h) (human) = EphA2(h) (human) (UniProt P29317)
FGFR1(V561M)(h) (human) = FGFR1(V561M)(h) (human) (UniProt P11362)
Fgr(h) (human) = Fgr(h) (human) (UniProt P09769)
Fms(Y969C)(h) (human) = target: T2, Fms(Y969C)(h) (human) (UniProt P07333)
T2 sequence (looked up): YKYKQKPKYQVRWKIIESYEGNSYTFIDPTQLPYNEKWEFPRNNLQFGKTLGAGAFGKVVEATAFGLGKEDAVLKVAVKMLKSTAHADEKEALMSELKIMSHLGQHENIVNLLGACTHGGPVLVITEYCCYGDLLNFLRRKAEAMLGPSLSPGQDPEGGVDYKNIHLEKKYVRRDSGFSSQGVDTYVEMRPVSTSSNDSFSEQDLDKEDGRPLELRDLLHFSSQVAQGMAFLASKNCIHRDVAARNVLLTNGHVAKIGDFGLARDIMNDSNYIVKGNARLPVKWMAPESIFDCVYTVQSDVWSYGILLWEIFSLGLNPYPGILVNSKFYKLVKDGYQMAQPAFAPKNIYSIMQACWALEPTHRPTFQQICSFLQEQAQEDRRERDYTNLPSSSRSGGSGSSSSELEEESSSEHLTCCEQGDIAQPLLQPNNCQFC

HIPK3(h) (human) = HIPK3(h) (human) (UniProt Q9H422)
JAK2(h) (human) = JAK2(h) (human) (UniProt O60674)
JNK1α1(h) (human) = JNK1α1(h) (human) (UniProt P45983)
Lck(h) (human) = Lck(h) (human) (UniProt P06239)
MKK7β(h) (human) = MKK7β(h) (human) (UniProt O14733)
PAK5(h) (human) = PAK5(h) (human) (UniProt Q9P286)
Yes(h) (human) = Yes(h) (human) (UniProt P07947)
ACK1(h) (human) = ACK1(h) (human) (UniProt Q07912)
BTK(h) (human) = BTK(h) (human) (UniProt Q06187)
Bmx(h) (human) = target: T3, Bmx(h) (human) (UniProt P51813)
T3 sequence (looked up): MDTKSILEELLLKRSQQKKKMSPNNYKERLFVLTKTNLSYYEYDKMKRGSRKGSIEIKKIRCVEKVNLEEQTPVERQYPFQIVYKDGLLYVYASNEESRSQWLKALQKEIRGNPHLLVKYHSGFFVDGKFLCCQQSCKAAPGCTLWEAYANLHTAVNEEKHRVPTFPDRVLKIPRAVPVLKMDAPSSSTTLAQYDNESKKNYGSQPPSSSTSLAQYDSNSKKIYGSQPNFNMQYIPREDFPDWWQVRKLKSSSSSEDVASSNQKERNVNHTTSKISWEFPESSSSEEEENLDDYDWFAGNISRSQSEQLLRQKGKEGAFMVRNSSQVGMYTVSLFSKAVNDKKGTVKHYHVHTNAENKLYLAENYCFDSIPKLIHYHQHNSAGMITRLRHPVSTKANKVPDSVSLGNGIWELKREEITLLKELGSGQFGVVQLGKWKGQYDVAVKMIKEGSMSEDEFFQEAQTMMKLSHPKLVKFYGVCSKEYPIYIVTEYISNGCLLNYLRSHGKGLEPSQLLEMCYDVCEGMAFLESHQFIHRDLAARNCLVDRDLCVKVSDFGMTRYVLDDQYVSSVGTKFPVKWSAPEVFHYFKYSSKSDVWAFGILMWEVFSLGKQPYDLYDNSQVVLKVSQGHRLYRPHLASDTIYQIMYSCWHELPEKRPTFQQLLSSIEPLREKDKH

FAK(h) (human) = FAK(h) (human) (UniProt Q05397)
FGFR3(h) (human) = FGFR3(h) (human) (UniProt P22607)
GRK5(h) (human) = GRK5(h) (human) (UniProt P34947)
JAK3(h) (human) = JAK3(h) (human) (UniProt P52333)
Met(Y1248D)(h) (human) = Met(Y1248D)(h) (human) (UniProt P08581)
Met(Y1248H)(h) (human) = Met(Y1248H)(h) (human) (UniProt P08581)
PDGFRα(D842V)(h) (human) = PDGFRα(D842V)(h) (human) (UniProt P16234)
PKCη(h) (human) = PKCη(h) (human) (UniProt P24723)
SRPK2(h) (human) = SRPK2(h) (human) (UniProt P78362)
Snk(h) (human) = Snk(h) (human) (UniProt Q9NYY3)
TLK2(h) (human) = TLK2(h) (human) (UniProt Q86UE8)

Chain of MKK7β(h) (human) (O14733 whole entry): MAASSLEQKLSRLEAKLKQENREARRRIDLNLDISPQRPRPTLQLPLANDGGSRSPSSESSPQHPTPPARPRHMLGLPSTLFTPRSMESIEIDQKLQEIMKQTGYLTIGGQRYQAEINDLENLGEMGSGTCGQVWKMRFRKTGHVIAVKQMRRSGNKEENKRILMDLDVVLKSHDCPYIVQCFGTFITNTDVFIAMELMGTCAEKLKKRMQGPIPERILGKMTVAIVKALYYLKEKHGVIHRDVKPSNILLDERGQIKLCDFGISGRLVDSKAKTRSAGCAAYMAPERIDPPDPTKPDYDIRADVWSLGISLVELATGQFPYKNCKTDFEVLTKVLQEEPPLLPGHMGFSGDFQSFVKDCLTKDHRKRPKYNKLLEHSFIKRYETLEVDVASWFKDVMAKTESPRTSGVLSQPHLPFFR
Chain of Abl(T315I)(h) (human) (P00519 27-1130 T315I limits assumed): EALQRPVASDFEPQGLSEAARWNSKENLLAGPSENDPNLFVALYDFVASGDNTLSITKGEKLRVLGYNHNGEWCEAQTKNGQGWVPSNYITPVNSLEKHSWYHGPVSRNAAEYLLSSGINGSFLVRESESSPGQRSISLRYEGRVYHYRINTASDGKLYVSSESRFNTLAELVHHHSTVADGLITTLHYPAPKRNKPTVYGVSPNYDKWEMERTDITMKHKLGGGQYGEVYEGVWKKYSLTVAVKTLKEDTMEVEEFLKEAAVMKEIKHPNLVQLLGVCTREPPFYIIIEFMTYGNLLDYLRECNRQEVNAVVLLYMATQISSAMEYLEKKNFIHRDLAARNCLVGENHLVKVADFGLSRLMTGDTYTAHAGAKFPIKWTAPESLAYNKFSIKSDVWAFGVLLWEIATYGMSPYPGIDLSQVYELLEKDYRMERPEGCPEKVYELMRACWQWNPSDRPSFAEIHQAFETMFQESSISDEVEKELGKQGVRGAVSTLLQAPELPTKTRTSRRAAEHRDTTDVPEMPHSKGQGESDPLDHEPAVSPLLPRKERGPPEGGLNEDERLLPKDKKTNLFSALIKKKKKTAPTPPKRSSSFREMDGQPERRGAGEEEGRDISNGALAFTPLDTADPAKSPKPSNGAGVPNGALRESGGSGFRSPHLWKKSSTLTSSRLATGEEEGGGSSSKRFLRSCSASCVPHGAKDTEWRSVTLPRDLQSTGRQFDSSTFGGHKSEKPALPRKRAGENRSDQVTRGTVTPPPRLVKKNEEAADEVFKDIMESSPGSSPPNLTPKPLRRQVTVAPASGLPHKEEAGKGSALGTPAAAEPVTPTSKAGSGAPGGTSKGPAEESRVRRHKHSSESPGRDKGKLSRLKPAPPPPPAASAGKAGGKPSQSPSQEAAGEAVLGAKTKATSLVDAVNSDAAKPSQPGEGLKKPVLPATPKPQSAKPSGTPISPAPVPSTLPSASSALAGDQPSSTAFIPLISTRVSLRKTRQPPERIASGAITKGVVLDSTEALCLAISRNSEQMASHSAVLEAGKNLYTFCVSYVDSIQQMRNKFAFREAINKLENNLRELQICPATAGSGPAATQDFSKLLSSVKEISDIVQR
Chain of FGFR3(h) (human) (P22607 448-759 limits assumed): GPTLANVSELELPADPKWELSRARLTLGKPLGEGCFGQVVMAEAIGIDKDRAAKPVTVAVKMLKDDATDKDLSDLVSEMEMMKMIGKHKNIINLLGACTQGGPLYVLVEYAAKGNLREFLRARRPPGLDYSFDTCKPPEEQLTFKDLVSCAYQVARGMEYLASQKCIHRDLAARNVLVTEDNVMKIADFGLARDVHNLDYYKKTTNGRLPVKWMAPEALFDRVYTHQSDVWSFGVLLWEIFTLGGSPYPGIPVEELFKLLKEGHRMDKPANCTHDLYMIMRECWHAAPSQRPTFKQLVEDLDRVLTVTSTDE
Chain of Abl(M351T)(h) (human) (P00519 27-1130 M351T limits assumed): as the sequence (P00519 27-1130 T315I limits assumed) above, with I289T, M325T counted along it
Chain of Abl(H396P)(h) (human) (P00519 27-1130 H396P limits assumed): as the sequence (P00519 27-1130 T315I limits assumed) above, with I289T, H370P counted along it
Chain of FGFR1(V561M)(h) (human) (P11362 456-765 V561M limits assumed): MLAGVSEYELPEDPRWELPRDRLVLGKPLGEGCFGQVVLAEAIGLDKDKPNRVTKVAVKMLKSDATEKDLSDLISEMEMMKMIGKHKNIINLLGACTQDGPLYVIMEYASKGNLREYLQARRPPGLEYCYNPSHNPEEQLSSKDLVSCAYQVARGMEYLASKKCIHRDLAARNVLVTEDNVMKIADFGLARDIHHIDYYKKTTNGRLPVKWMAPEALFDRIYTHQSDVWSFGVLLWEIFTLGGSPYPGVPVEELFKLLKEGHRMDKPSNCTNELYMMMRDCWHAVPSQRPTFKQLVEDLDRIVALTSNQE
Chain of EphA2(h) (human) (P29317 559-976 limits assumed): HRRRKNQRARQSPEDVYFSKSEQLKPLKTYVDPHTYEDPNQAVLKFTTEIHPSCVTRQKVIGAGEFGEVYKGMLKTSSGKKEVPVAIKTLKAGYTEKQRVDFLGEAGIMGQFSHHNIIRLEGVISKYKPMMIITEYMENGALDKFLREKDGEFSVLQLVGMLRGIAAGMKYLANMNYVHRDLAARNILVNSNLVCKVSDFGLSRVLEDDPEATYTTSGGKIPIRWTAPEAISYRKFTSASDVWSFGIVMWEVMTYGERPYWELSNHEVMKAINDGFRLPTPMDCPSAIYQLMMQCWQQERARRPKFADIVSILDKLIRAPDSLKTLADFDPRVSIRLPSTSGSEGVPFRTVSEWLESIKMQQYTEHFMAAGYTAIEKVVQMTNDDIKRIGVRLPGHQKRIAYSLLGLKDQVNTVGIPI
Chain of PDGFRα(D842V)(h) (human) (P16234 550-1089 D842V limits assumed): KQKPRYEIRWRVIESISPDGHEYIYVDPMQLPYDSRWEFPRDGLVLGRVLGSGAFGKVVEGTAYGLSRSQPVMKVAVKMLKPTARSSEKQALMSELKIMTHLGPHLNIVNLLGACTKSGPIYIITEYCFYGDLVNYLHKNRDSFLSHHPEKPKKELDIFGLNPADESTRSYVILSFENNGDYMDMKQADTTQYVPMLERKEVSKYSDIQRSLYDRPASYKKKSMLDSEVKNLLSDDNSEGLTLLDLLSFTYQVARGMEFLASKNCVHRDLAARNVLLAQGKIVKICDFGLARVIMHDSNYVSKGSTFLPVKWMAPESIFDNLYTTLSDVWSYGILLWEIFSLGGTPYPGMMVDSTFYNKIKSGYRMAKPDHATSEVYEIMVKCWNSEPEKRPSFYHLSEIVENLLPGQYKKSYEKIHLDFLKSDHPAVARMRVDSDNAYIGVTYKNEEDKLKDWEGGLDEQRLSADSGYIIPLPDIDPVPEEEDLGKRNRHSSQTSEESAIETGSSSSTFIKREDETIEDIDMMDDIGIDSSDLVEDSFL

Row | % activity at 100 µM (Abl(H396P)(h) (human)) | % activity at 100 µM (Abl(M351T)(h) (human)) | % activity at 100 µM (Abl(T315I)(h) (human)) | % activity at 100 µM (Aurora-A(h) (human)) | % activity at 100 µM (EGFR(T790M)(h) (human)) | % activity at 100 µM (EphA2(h) (human)) | % activity at 100 µM (FGFR1(V561M)(h) (human)) | % activity at 100 µM (Fgr(h) (human)) | % activity at 100 µM (Fms(Y969C)(h) (human)) | % activity at 100 µM (HIPK3(h) (human)) | % activity at 100 µM (JAK2(h) (human)) | % activity at 100 µM (JNK1α1(h) (human)) | % activity at 100 µM (Lck(h) (human)) | % activity at 100 µM (MKK7β(h) (human)) | % activity at 100 µM (PAK5(h) (human)) | % activity at 100 µM (Yes(h) (human)) | % activity at 100 µM (ACK1(h) (human)) | % activity at 100 µM (BTK(h) (human)) | % activity at 100 µM (Bmx(h) (human)) | % activity at 100 µM (FAK(h) (human)) | Substance | other results
1 | 101% | 90% | 97% | 92% | 100% | 31% | 74% | 60% | 72% | 93% | 133% | 97% | -2% | 100% | 110% | 67% | – | – | – | – | MMI-0300 (peptide) | –
2 | – | – | – | – | – | 17% | 74% | 47% | 91% | – | – | 98% | – | 94% | – | 14% | 95% | 94% | 26% | 96% | MMI-0400 (peptide) | % activity at 100 µM (FGFR3(h) (human)): 0%; % activity at 100 µM (GRK5(h) (human)): 131%; % activity at 100 µM (JAK3(h) (human)): 122%; % activity at 100 µM (Met(Y1248D)(h) (human)): 31%; % activity at 100 µM (Met(Y1248H)(h) (human)): 63%; % activity at 100 µM (PDGFRα(D842V)(h) (human)): 118%; % activity at 100 µM (PKCη(h) (human)): 98%; % activity at 100 µM (SRPK2(h) (human)): 97%; % activity at 100 µM (Snk(h) (human)): 131%; % activity at 100 µM (TLK2(h) (human)): 151%
3 | 51% | 61% | 16% | 110% | 70% | – | – | – | – | 85% | 49% | – | 359% | – | 125% | – | 64% | 18% | 45% | 94% | MMI-0500 (peptide) | % activity at 100 µM (FGFR3(h) (human)): 10%; % activity at 100 µM (JAK3(h) (human)): 95%; % activity at 100 µM (Met(Y1248D)(h) (human)): 218%; % activity at 100 µM (Met(Y1248H)(h) (human)): 126%; % activity at 100 µM (PDGFRα(D842V)(h) (human)): 170%; % activity at 100 µM (PKCη(h) (human)): 45%; % activity at 100 µM (SRPK2(h) (human)): 80%; % activity at 100 µM (Snk(h) (human)): 122%; % activity at 100 µM (TLK2(h) (human)): 133%

From US20150064134A1
